From patent US20240101708A1 (Genentech, published 2024)

T1: recombinant human ZNRF3 extracellular domain (human, UniProt Q9ULT6 56-219)
T1 construct: extracellular domain; also called huZNRF3; human ZNRF3 ECD
T1 sequence (looked up): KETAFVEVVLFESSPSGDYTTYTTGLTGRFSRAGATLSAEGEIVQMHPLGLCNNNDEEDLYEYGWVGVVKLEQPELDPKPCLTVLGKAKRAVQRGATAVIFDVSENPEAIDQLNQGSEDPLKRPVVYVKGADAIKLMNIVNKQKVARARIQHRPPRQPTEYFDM


Target: T1, recombinant human ZNRF3 extracellular …
Test: SPR Biacore 8K; antibody captured on Protein A; ZNRF3 ECD analyte; 25 C
Method: Antibodies were screened for binding to recombinant human RNF43 and ZNRF3 ECDs using a Biacore® 8 k instrument (GE Life Sciences). Briefly, antibodies diluted to 1 μg/ml in 1×HBSP buffer (Cytiva, BR100368) were captured on a Sensor Chip Protein A (GE Life Sciences) using a flow rate of 10 μl/minute and a contact time of 60 seconds. Binding of recombinant human RNF43 and ZNRF3 extracellular domain to the captured antibodies was analyzed at 25° C. using a single cycle kinetics method with a flow rate of 30 μl/minute, a contact time of 180 seconds and a dissociation time of 600 seconds. The concentration of recombinant human RNF43 and ZNRF3 extracellular domain in the single cycle kinetics were 0, 0.8, 4, 20, and 100 nM. Between cycles, the chip was regenerated using 10 mM Glycine HCl pH 1.5 injected for 30 seconds at 30 μl/minute. Data were evaluated using Biacore 8K Evaluation software (GE Life Sciences). Kinetic constants were obtained using a 1:1 binding model with the parameter RI set to zero. Cell surface ligase antibodies with sub-nanomolar affinities may provide advantages in certain instances, for example, in the degradation efficiency which is correlated with the durability of the ternary complex as shown in FIG. 5D.

Binder	Kd [nM]
ZNRF3-333 (antibody, V domains shown, Rabbit clone; VH/VL only) VH: QSLEESGGGLVQPEGSLTLTCTASGIDFSARSYMCWVRQAPGKGLEWVACIYTGSSGSTYYANWAKGRFTISKTSSTTVTLRMTSLTAADTASYFCARGAYVGYGFAAYFTLWGPGTLVTVSS VL: DIVMTQTPASVEAAVGGTVTINCQASQSISSYLAWYQQKPGQPPKLLIYYASNLESGVPSRFKGSGSGTQFTLTISDLECADAATYYCQAYYSSITGWAFGGGTEVVVK	8.7
ZNRF3-171 (antibody, V domains shown, Rat clone; VH/VL only) VH: QVQLHQSGTELARPGTSVKLSCKASGYTFSRFYINWVKKRPGQGLEWIGYIDPGNGGTFHSEKFKDKASLTADTSSSTAYMVLGSLAPEDSAFYFCVRGYYSSYDWFAYWGQGTLVTVSS VL: DIQLTQSPSSMSASLGDRVSLTCQSSQGIGNYLSWYQHKPGEPPKPILYYATNLADGVPSRFSGSRSGSDYSLTISSLESEDTAIYYCLQYDEYPYTFGPGTKLELR	1.01
ZNRF3-101 (antibody, V domains shown, Rat clone; VH/VL only) VH: QVQLKESGPGLVQPTQTLSLTCTVSGFSLTSSTVSWVRQPPGKGLEWIAAISSAENTYYNSGLKSRLSISRDTSKSQVFLKMNSLQTEDTAMYFCAGGRILETLFDSWGQGVMVTVSS VL: DIVLTQSPALAVSLGQRATISCKTNQNVDFYGKTYMHWYQQKRGQQPKLLIYLASNLASGIPARFSGRGSGTDFTLTIDPVATDDTATYYCQQTRSLPPTFGAGTKLELK	0.07
ZNRF3-117 (antibody, V domains shown, Rat clone; VH/VL only) VH: EIQLQESGPGLVKPSQSLSLTCSVTGYTITSDYDWSWIRKFPGNKMEWMGYINYSGSTNYNPSLKSRISFTRDTSKNQFFLQLNSITTDDTATYYCARYGPYYGFSDWYFDFWGPGTMVTVSS VL: DVQMTQSPSYLAASPGESVSISCKASQSISNYLAWYQQKPGKTYRLLIYSGSTLQSGTPSRFSGSGSGTDFTLTIRSLEPEDFGLYYCQQYYEKPLTFGSGTKLEIK	0.2
ZNRF3-163 (antibody, V domains shown, Rat clone; VH/VL only) VH: EVQLEESGGGLVQPGRSMKFSCAASGFTFSNYYMAWVRQAPSKGLEWVASISTGGGDVYYRDSVKGRFTISRDNAKSTLYLQMDSLRSEDTATYYCARHSGGRIRARGHYFDYWGQGVMVTVSS VL: DIQMTQSPASLSASLGETVSIECLASEDISNDLAWYQQKSGKSPQVLIYGVSRLQDGVPSRFSGSGSGTRYSLKISGMQPEDEADYFCQQSYKYPYTFGAGTKLELK	0.61
ZNRF3-195 (antibody, V domains shown, Rat clone; VH/VL only) VH: EVQLVESGGGLVQPGNSLNLSCSASGFPFSTYGMHWIRQAPGKGLDWVAYISYNSGTVYADAVKGRFTISRDNAKNTLYLQLNSLKSEDTAIYYCARGYYDGYYRYWGQGVMVTVSS VL: DIVMTQSPFSLAVSEGEMVTINCKSSQSLLSSGNQKNYLAWYQQRPGQSPKLLIYHASTRQSGVPDRFIGSGSGTDFTLTISDVQAEDLADYYCLQHYSSPTFGSGTKLEIK	0.27
ZNRF3-6 (antibody, V domains shown, Rat clone; VH/VL only) VH: EVQLVESGGGLVPPGKSLKLSCSASGFPFSNYGMHWIRQAPGKGLDWVGYISSNSGTIYADAVKGRFTISRDNAKNTLYLLINSLKSEDTAMYYCARGYFDGYYRFWGQGVMVTVSS VL: DIVMTQSPFSLAVSEGDMVTIMCRSSQSLLSSGNQKNYLAWYQQKPGQSPKLLIYHASTRQSGVPDRFIGSGSGTDFTLTISDVQAEDLADYYCLQHYSSPTFGSGTKLEIK	0.12
ZNRF3-128 (antibody, V domains shown, Rat clone; VH/VL only) VH: EVQLVESGGGLVQPGKSLKLSCSASGFTFSSYGMHWIRQAPGKGLDWVAYISTNSATVYADAVKGRFTISRDNAKNTLYLQLNSLKSEDTAIYYCARSGYTTYMPFTYWGQGTLVTVSS VL: DVLMTQTPVSLPVSLGGQVSISCRSSQSLVHSDGNTYLHWYLQKPGQSPQLLIYRVSNRFSGVSDRFSGSGSGTDFTLKISRVEPDDLGIYYCLQTTHFLTWTFGGGTKLELK	3.16
ZNRF3-90 (antibody, V domains shown, Rat clone; VH/VL only) VH: EVQLVESGGGLVQPGRSMKLSCAASGFTFSNYYMAWVRQAPRKGLEWVASITTGGTNTYYRDSVRGRFTISRDNAKSTLYLQMDSLRSEETATYYCARHSGGLIRARGHYFHYWGQGVMVTVSS VL: DIQMTQSPASLSASLGEIVSIECLASEGISNDLAWYQQKSGKSPQVLVYAASRLQDGVPSRFSGSGSGTRYSLKISGMQPEDEADYFCQQSYTYPYTFGAGTKLELK	0.27
ZNRF3-131 (antibody, V domains shown, Rat clone; VH/VL only) VH: EVQVVESGGGLVQPGRSLKVSCAASGFTFSRYGMAWVRQAPTKGLEWVASISTGGENTYYRDSVKGRFTISRDNVKNTLYLQMDSLRSEDTATYYCARHGRVLNYFDYWGQGVMVTVSL VL: DIQMTQSPASLSASLGETVSIECLTSEDIYTYLAWYQQKPGKSPHLLIFAASRLQDGVPSRFSGSGSGTQYSLKISGMQPEDEGDYFCLQGSKFPYTFGAGTKLDLK	2.39
ZNRF3-17 (antibody, V domains shown, Rat clone; VH/VL only) VH: EVQLVESGGGLVQPGGSLKLSCAASGFTFSNYDMAWVRQAPTKGLEWVASISTGGGKTYYRDSVKGRLTISRDNAKNTQYLQMDSLRSEDTATYYCARLGPAYSGEWFAYWGQGTLVTVSS VL: DTVLTQSPALAVSPGERVTISCGASEGVNTRMHWYQQRSGQQPKLLIYGSSNLDSGVPDRFSGSGSGTDFTLTIDPVEAKDAATYFCQQSWNVPNTFGAGTKLELK	0.04
ZNRF3-55 (antibody, V domains shown, Rat clone; VH/VL only) VH: EVHLVESGGGLVQPGGSLKLSCAASGFTFSNYDMAWVRQAPTRGLEWVASISPGGGKTYYRDSVKGRLTISRNNAENTQYLQIDSLRSEDTATYYCSRLGPAYSGEWFAYWGQGTLVTVSS VL: DTVLTQSPALTVSPGDKITISCRASEGVNTRIHWYQQKSGQQPKLLIYGASNLDSGVPDRFSGSGFGTDFTLTIDPVEASDTATYFCQQSWNVPHTFGGGTKLELK	0.02
ZNRF3-172 (antibody, V domains shown, Rat clone; VH/VL only) VH: EVQLAESGGGLEQPGRSLKLSCAASGFTFSNYDMAWVRQAPTKGLEWVASIIASGGTTYYRDSVKGRFTVSRDNAKSTLYLQMDSLRSEDTATYYCARHGVGSYDWFADWGQGTLVTVSS VL: DIVLTQSPALAVSLGQRATISCRASQSVTISGFNLMHWYQQKPGQQPKLLIYRASNLAFGIPARFSGSGSGTDFTLTINPVQADDITTYYCQQSRKSRTFGGGTKLELK	0.21
ZNRF3-30 (antibody, V domains shown, Rat clone; VH/VL only) VH: EVQLAESGGGLEQPGRSLKLSCAASGFTFSNYDMAWVRQAPTRGLEWVASILTSGGTTYYRDSVKGRFTVSRDNAKSTLYLQMDSLRSEDTATYYCARHGVGSYDWFADWGQGTLVTVSS VL: DIVLTQSPALAVSLGQRATISCRASQSVTISGYNLMHWYQQKPGQQPKLLIYRASNLAFGIPARFSGSGSGTDFTLTINPVQADDITTYYCQQSRKSRTFGGGTRLELK	0.12
ZNRF3-179 (antibody, V domains shown, Rat clone; VH/VL only) VH: EVQLAESGGGLEQPGRSLKLSCAASGFTFSNYDMAWVRQAPTKGLEWVASIITSGDTTYYRDSVKGRFTVSRDNAKSTLYLQMDSLRSEDTATYHCARHGVGSYDWFADWGQGTLVTVSS VL: DIVLTQSPALAVSLGQRATISCRASQSVTISGYNLMHWYQQKPGQQPKLLIYRASNLAFGIPARFSGSGSGTDFTLTINPVQADDITTYYCQQSRKSRTFGGGTKLELK	0.11
ZNRF3-182 (antibody, V domains shown, Rat clone; VH/VL only) VH: EVQLAESGGGLEQPGRSLKLSCAASGFTFSNYDMAWVRQAPTKGLEWVASIIKSGDTSYYRDSVKGRFTVSRDNAKSTLYLQMDSLRSEDTATYYCARHGVGSYDWFADWGQGTLVTVSS VL: DIVLTQSPALAVSLGQRATISCRASQSVTISGFNLMHWYQQKPGQQPKLLIYRASNLAFGIPARFSGSGSGTDFTLTINPVQADDFTTYYCQQSRKSRTFGGGTKLELK	0.06
ZNRF3-305 (antibody, V domains shown, Rat clone; VH/VL only) VH: EVLLQQSGAELVRPGSSVKISCKTSGYTFTDYYLHWVKQRPEQGLVWIGRINPINGKTVCIEKFKTKATLTADKSSNTAYMELSSLTSEDTATYFCTRGGLAYWGQGTLVTVSS VL: DIQMTQSPSSLPASLGERVTISCRASQGISNNLNWYQQKPDGTIKPLIYYTSNLQSGVPSRFSGSGSGTDYSLTIGSLEPEDFTMYYCQQDASFPPTFGAGTKLELK	7.18
ZNRF3-312 (antibody, V domains shown, Rat clone; VH/VL only) VH: QVQLQQSGAELVKPGSSVKMSCKASGYSFTTYYIYWINQRPGQGLEWIGRIGLGSGDTDYNEKFKGKATFTVDKFSNTAYLQLSSLTPEDTAVYYCARWDYGYRGFAYWGQGTLVTVSS VL: DVVMTQTPVSLSVSLGGQVSISCRSSQSFVHSDGNTYLNWYLQTPGQSPQLLIYKVSNRLSGVPDRFSGSGSGTYFTLKISRVEHDDLGVYYCGQASKIPLTFGSGTKLEIK	0.611
ZNRF3-279 (antibody, V domains shown, Rat clone; VH/VL only) VH: QVQLQQSGAELVKPGTSVRLSCKASGYTFTHNHMNWIKQTTGQGLEWIGIINPGSGGTNYNVRFKGKATLTVDTSSSTAFMQLSSLTPEDSAVYYCARNLITIAGPFAYWGQGTLVTVSS VL: DTVLTQSPALTVSPGERVSISCRASEGVSSYIHWYQQKPGQQPKLLIYKASNLASGVPARFSGSGSGTDFTLTIDPVEADDTATYFCQQSWIDHTFGTGTKLELK	1.66
ZNRF3-275 (antibody, V domains shown, Rat clone; VH/VL only) VH: QVQLKESGPGLVQPSQTLSLTCTVSGFSFNYYNVHWLRQPPGKGLEWLGVIWSGGNRDYNSALKPRLRISRDTSKTQVFLTLNSLQTEDTGIYYCTRMWGYGYNPFDHWGQGVMVTVSS VL: DIQMTQSPSFLSASLGDNITITCHASQDIKGWLAWYQQKSGNAPELLIYKASSLQSGVPSRFSGGGSGTEYVLTISNLQPDDIATYYCQLYHSFPFTFGSGTKLETK	0.0565
